Laboratory results: publication PMC6397515

Key:
[1] = biological target: HypT RD M206Q mutant protein (Salmonella enterica serovar Typhimurium); assay: crystal structure
[2] = biological target: full-length StHypT protein (HypT of Salmonella enterica serovar Typhimurium, WP_000383509) (Salmonella enterica serovar Typhimurium); assay: SEC
[3] = biological target: full-length StHypT protein (HypT of Salmonella enterica serovar Typhimurium, WP_000383509) (Salmonella enterica serovar Typhimurium); assay: crystal structure

## HypT RD M206Q mutant protein (domain or fragment)
[1]
  stoichiometry N: 2

## full-length StHypT protein (HypT of Salmonella enterica serovar Typhimurium, WP_000383509) (natural protein)
[2]
  stoichiometry N: 4
[3]
  stoichiometry N: 4
